Test results as given in patent US20260034233A1 (SUNMED THERAPEUTIC, published 2026).
Changes are numbered by the printed parent chain.

T1: Rat GAL-3 (rat, UniProt P08699 2-262, limits assumed)
T1 construct: also called rat Galectin-3
T1 sequence (looked up): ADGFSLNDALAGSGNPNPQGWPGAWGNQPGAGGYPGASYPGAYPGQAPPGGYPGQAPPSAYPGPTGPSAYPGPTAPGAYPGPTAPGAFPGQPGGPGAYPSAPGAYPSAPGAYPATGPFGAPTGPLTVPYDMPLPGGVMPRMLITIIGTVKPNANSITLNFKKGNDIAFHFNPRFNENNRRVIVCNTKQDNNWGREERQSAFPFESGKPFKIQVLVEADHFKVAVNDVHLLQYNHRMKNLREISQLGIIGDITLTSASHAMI

T2: Gal3-e
T2 construct: also called Galectin3-e; Gal-3 peptide
T2 peptide: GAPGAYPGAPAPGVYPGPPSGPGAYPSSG

B1: SIF001 (antibody, V domains shown)
VH: QVQLVQSGSELKKPGASVKVSCKASGYTFTNYGMNWVRQAPGQGLEWMGWINTYTGEPTYADDFKGRFVFSLDTSVSTAYLQISSLKNEDMAVYFCARYAMDYWGQGTLVTVSS
VL: EAVVTQEPSLTVSPGGTVTLTCRSSTGAVTTSNYANWVQQKPGQAFTGLIGGTSNRAPGTPARFSGSLLGDKAALTLLGAQPEDEAEYFCALWYSTHYVFGGGTKLTVL
notes: Humanized monoclonal antibody raised against human GAL-3; also called SIF001 Ab; SF001
B2: SIF002 (antibody, V domains shown)
VH: EVQLLESGGGLVQPGGSLRLSCAASGFTFSRFWMSWVRQAPGKGLEWVSEISPDSNTIDLTPSLKDRFTISRDNSKNTLYLQMNSLRAEDTAVYYCAKPYYGYYWGQGTLVTVSS
VL: DIVMTQSPDSLAVSLGERATMNCRSSQSLFSSTNQKNYLTWYQQKPGQPPKLLIYWASSRESGVPDRFSGSGSGTDFTLTISSLQAEDVAVYYCQNDYTSPFTFGQGTRLEIK
B3: Fab of the SIF001 antibody (Fab, V domains shown)
VH: B1 VH
VL: B1 VL
B4: 1220SBC1068-186 (antibody, IgG4, V domains shown)
VH: EVQLQQSGPELVKPGASMKMSCKASGYSFTGYTMNWVKQSHGKNLEWIGLISPYSGGTNYNQKFKGKATLTVDKSSSTAYMEVFSLTSEDSGVYYCARSGFITTGVATNFDVWGAGTTVTVSS
VL: DIVMTQSHKFMSTSVGDRVSITCKASQDVSTAVAWYQQRPGQSPKLLIYSASNRYTGVPDRFTGSGSGTDFTFTISSMQAEDLAIYYCQQHYSTPRTFGGGTKLEIK
B5: 1220SBC1068-035 (antibody, IgG4, V domains shown)
VH: B4 VH with M20I, S28A, K63R, L70F, V83L, F84L, A107P
VL: B4 VL with R18G, S20N, R39K, K45R, N53Y, I85V, S93T
B6: 1104SBC1068-374 (antibody, IgG4, V domains shown)
VH: QIQLVQSGPELKKPGETVKISCKASGYTFTNYGMNWVKQAPGKGLKWMGWINTYTGEPTYADDFKGRFAFSLETSASTAYLQINNLKNEDMATYFCARYAMDYWGQGTSVTVSS
VL: QAVVTQESALTTSPGGTVILTCRSSTGAVTTSNYANWVQEKPDHLFTGLIGGTSNRAPGVPVRFSGSLIGDKAALTITGAQTEDDAMYFCALWYSTHYVFGGGTKVTVL
B7: 1104SBC1068-378 (antibody, IgG4, V domains shown)
VH: QIQLVQSGPELKKPGETVKISCKASGYTFTNYGMNWVKQAPGKGLKWMGWINTYTGEPTYADDFKGRFAFSLETSASTAYLQINNLKNEDTATYFCARWDDYDGFAYWGQGTLVTVSA
VL: DIVLTQSPATLSVTPGDSVSLSCRASQSISNNLHWYQQKSHESPRLLIKYASQSISGIPSRFSGSGSGTDFTLSINSVETEDFGMYFCQQSNSWPLTFGAGTKLELK
B8: 1104SBC1068-335 (antibody, IgG4, V domains shown)
VH: QIQLVQSGPELKKPGETVKISCKASGYIFTNYGMNWVKQAPGKGLKWMGWINTYSGEPTYVDDFKGRFVFSLETSASTAYLQINNLKNEDMATYFCARGTVVGFDYWGQGTTLTVSS
VL: not shown
B9: 1104SBC1068-033 (antibody, IgG4, V domains shown)
VH: DVQLQESGPGLVKPSQSLSLTCTVTGYSITSDYAWNWIRQFPGNKLEWMGYISYSGSTSYNPSLKSRISITRDASKNQFFLQLNSVTTEDTATYYCAREGGRGGTEGYYFDYWGQGTTLTVSS
VL: NIVLTQSPASLAVSLGQRATISCRASESVDSYGNSFMHWYQQKPGQPPKLLIYLASNLESGVPARFSGSGSRTDFTLTIDPVEADDAATYYCQQNNEDPLTFGAGTKLELK
B10: 1220SBC1068-022 (antibody, IgG4, V domains shown)
VH: EVKLVESGGGLVQPGGSRKLSCAASGFTFSDYGMAWFRQAPGKGPEWVAFISNLAYSVYYADTVTGRFTISRENAKNTLFLEMSSLRSEDTAIYYCTRDRGLRESMDYWGQGTSVTVSS
VL: DIVMTQAAPSVPVTPGESVSISCRSSKSLLHNNGNTYLCWFLQRPGQSPQLLIYRMSDLASGVPDRFSGSGSGTAFTLRISRVEAEDVGVYYCMQHLEYPYTFGGGTKLEIK
B11: 1220SBC1068-058 (antibody, IgG4, V domains shown)
VH: B10 VH with F80Y, S84N, S105T
VL: B10 VL with D58N
B12: 1220SBC1068-056 (antibody, IgG4, V domains shown)
VH: B10 VH with F80Y
VL: B10 VL with R24G, N32K, D58N, R82S, V90I
B13: 1104SBC1068-365 (antibody, IgG4, V domains shown)
VH: QIQLVQSGPELKKPGETVKISCKASGYTFTNYGMNWVKQAPGKGLKWMGWINTNTGEPTYSEEFKGRFAFSLETSASTAYLQINNLKNEDTATYFCGRSSYYAMDYWGQGTSVTVSS
VL: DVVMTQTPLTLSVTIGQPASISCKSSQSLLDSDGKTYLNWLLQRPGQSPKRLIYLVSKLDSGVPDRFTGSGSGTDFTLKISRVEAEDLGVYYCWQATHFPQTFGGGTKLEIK
B14: 1220SBC1068-210 (antibody, IgG4, V domains shown)
VH: EVKLLESGGGLVQPGGSLKLSCAASGFDFSRYWMSWVRQAPGKGLEWIGEINPDSSTIDLTPSLKDNFIISRDNAKNALYLQMSKVRSEDTALYYCTRPYYGYYWGQGTLVTVSA
VL: DIVMTQSPSSLTVTAGEKVTMNCRSSQSLLNSTNQKNYLTWYQQRPGQPPKLLIYWASTRESGVPDRFTGSGSGTDFTLTISTVQAEDLAVYYCQNDYTSPFTFGSGTKLEIK
B15: 1220SBC1068-099 (antibody, IgG4, V domains shown)
VH: B14 VH with S35T, D54H, D59T, L60Y, N67K, A78T, R87S, T97A
VL: B14 VL with N22S, R24K, T33G, N37I, R45K, T59I, T83S, T99S
B16: 1220SBC1068-164 (antibody, IgG4, V domains shown)
VH: B14 VH with N52S, D59N, L60Y, P62A, N67K, I69N, A78T, T97A, A115E
VL: B14 VL with N22S, R24K, L30F, T33G, R45K, S58Y, S82H, T83G, Q95H, I112M
B17: 1220SBC1068-129 (antibody, IgG4, V domains shown)
VH: B14 VH with G10D, Y32F, D59T, L60Y, N67K, N77S, A78S, R87T, T97A
VL: DIVMTQSPSSLTVTAGKEVTMSCKSSQSLLNSTNQKNYLTWYQQKPGQSPKLLIYWASTRDSGVPDRFTGSGSGTDFTLTISSVQAEDLAIYYCHNDYISPFTFGSGTKLEIK
B18: 1220SBC1068-098 (antibody, IgG4, V domains shown)
VH: B14 VH with N52S, R87K, Y101H
VL: B14 VL with R45K, R60K, S82N
B19: 1220SBC1068-097 (antibody, IgG4, V domains shown)
VH: B14 VH with R87K, Y101H
VL: B14 VL with R45K, S82N, V91I
B20: 1220SBC1068-274 (antibody, IgG4, V domains shown)
VH: B14 VH with N52S, S56N, V86L
VL: B14 VL with R45K, T75S
B21: 1220SBC1068-041 (antibody, IgG4, V domains shown)
VH: B14 VH with Y32F, N52S, S56N, Y80F
VL: B14 VL with L30F, R45K, T59S, A86T, K109R
B22: 1220SBC1068-063 (antibody, IgG4, V domains shown)
VH: EVNLLESGGGLVQPGGSLKLSCEASGFDFSRFWMSWVRQTPGEGLEWIGEISPNSSTIHQTPSLKDRFIISRDNAKNTLFLQMTKVTSDDSALYYCARPYYGYYWGHGTLVTVSA
VL: DIVMTQSPSSLTVTAGEKVTMSCKSSQSLLSSINQKNYLTWYQQKPGQPPKLLIYWATSRESGVPDRFTGSGSGTDFTLTISSLQAEDLAVYYCHNDYSYPFTFGSGTRLEIK
B23: 1220SBC1068-197 (antibody, IgG4, V domains shown)
VH: B22 VH with R67K, I69F, N77S, K85N, D89E
VL: B22 VL with S31N, S59F, S83G

What follows are binders tested against T3, human Galectin-3 (human, UniProt P17931 2-250, limits assumed) (assay: SPR).
T3 construct: also called Human GAL-3; hGal-3
T3 sequence (P17931 2-250 limits assumed): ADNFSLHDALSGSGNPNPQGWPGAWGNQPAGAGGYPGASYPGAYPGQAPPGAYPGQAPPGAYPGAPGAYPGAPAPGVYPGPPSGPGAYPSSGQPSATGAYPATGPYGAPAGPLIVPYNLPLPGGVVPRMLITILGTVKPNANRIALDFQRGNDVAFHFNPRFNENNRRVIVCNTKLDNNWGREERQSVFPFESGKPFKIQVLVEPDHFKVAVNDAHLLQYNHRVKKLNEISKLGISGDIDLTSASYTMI

Binder	Kd
B1	71.5 nM

These binders were tested against T4, Mouse GAL-3 (mouse, UniProt P16110 2-264, limits assumed) (assay: SPR).
T4 construct: also called mouse Galectin-3
T4 sequence (P16110 2-264 limits assumed): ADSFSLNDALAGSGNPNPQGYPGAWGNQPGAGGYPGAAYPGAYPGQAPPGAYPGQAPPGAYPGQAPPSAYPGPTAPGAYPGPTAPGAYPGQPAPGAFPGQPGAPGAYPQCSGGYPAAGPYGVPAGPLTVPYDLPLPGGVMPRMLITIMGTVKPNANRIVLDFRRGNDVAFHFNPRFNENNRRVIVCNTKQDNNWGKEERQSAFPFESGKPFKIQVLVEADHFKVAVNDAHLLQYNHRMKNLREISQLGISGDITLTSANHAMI

Binder	Kd
B1	10.9 nM

The binders below were run against T1, Rat GAL-3 (assay: SPR).

Binder	Kd
B1	11.7 nM

Each binder was assayed against T3, human Galectin-3 (assay: ELISA on human Galectin-3).

Binder	binding result
B2	binds

Biological target: T2, Gal3-e
Test: size exclusion chromatography of the mixture
Protocol: For X-ray diffraction, first we developed a homogeneous Gal3-e-Fab complex through Size Exclusion Chromatography (SEC) and analyzed the complex through crystallization screening and optimization. However, no diffraction patterns but only large block- and rod-shaped crystals were observed by multi-rounds of optimization. Screened commercial kits included crystal screens, structure screens, Index, JCSG plus, PEG/Ion1&2, ProPlex screens, and additive screens.
Excess Gal3-e were incubated with the Fab on ice for 30 minutes. After the incubation, Gal3-e-Fab complex was isolated from the mixture using SEC (Column: Superdex 75 increase 10/300).

Binder	binding result
B3	binds

The binders below were run against T3, human Galectin-3 (assay: Carterra LSA SPR epitope binning, antibody on chip, hGal-3 injected).
Protocol: The purpose of this study is to determine the epitope binning of antibodies against human Gal-3. Binning assay was conducted to characterize epitopes of the anti-Gal-3 antibodies using a Carterra LSA instrument. All the antibodies were constructed in hIgG4 backbone. Antibodies as ligands were covalently linked to a HC200M chip. The antigen hGal-3 as the analyte was injected to flow cells to bind to the captured ligands. Competitive binning was programmed to determine if two mAbs can bind simultaneously to the same antigen.
Epitope binning assay procedure. An array of antibodies as ligand were coupled to the chip surface HC200M using the Multichannel PH with the running buffer (25 mM MES buffer). The NHS/EDC activation time and coupling time was set at 5 min and 15 min respectively. The SFC then docked onto the chip, and in each cycle, antigen human Galectin-3 was injected across the entire Ab array, with association time of 5 min, followed by a single antibody as analyte with association time of 5 min. After 1 min dissociation, regeneration buffer (pH 2.0, 10 mM Glycine) was applied for 20 s for three times. The data were analyzed by Caterra Epitope Data Analysis Software.

Binder	binding result
B4	binds
B5	binds
B6	binds
B7	binds
B8	binds
B9	binds
B10	binds
B11	binds
B12	binds
B13	binds
B14	binds
B15	binds
B16	binds
B17	binds
B18	binds
B19	binds
B20	binds
B21	binds
B22	binds
B23	binds
